This is an account of results in patent US20040038888A1 (priority 2002, published 2004).

The target in one assay is T1, ADCYAP1R1 (Homo sapiens, UniProt P41586).
T1 sequence (P41586 21-468): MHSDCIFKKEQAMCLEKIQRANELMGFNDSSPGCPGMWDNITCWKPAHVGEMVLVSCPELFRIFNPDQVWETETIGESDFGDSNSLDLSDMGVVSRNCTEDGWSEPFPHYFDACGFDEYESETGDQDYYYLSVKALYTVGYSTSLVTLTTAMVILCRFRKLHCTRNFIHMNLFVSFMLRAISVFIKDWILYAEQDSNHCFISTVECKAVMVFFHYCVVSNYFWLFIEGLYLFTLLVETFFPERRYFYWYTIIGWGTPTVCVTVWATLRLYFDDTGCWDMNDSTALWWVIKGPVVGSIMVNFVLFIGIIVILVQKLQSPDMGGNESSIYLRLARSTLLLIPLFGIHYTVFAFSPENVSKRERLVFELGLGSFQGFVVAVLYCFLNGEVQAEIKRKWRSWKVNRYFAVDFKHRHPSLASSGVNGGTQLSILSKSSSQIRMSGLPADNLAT
To be noted: unlike PACAP, which binds ADCYAP1R1 and VIPR1 & 2; Moro and Lerner 1997; cited from earlier work.

Assay [1] deals with mouse adult neural stem cells. In words: Intracellular ATP assay, adult mouse NSC, non-adherent culture. The assay is classed as cell-based. Conditions: varying concentrations, non-adherent conditions, 3 days, relative to control, dose-dependent. The procedure: The anterior lateral wall of the lateral ventricle of 5-6 week old mice was enzymatically dissociated in 0.8 mg/ml hyaluronidase and 0.5 mg/ml trypsin in DMEM containing 4.5 mg/ml glucose and 80 units/ml DNase at 37° C. for 20 min. The cells were gently triturated and mixed with three volumes of Neurosphere medium (DMEM/F12, B27 supplement, 12.5 mM HEPES pH7.4) containing 20 ng/ml EGF (unless otherwise stated), 100 units/ml penicillin and 100μg/ml streptomycin. After passing through a 70 μm strainer, the cells were pelleted at 160×g for 5 min. The supernatant was subsequently removed and the cells resuspended in Neurosphere medium supplemented as above, plated out in culture dishes and incubated at 37° C. Neurospheres were ready to be split approximately 7 days after plating.
To split neurosphere cultures, neurospheres were collected by centrifugation at 160×g for 5 min. […]
Mouse neurospheres, cultured as described above, from passage 2, were seeded in DMEM/F12 supplemented with B27 into a 96-well plate as single cells (10000 cells/well) to the substances to be measured were added at the concentrations indicated. After 3 days incubation, intracellular ATP was measured using the ATP-SL kit from BioThema, Sweden, according to the manufacturer's instructions. […]

B1: Maxadilan: 63 amino acid peptide from salivary gland extracts of the sand fly; specific ADCYAP1R1 agonist (SEQ ID NO: 13) (peptide, listed as Mus musculus)
chain: CDATCQFRKAIEDCRKKAHHSDVLQTSVQTTATFTSMDTSQLPGSGVFKECMKEKAKEFKAGK
Consider B1, for which, in the assay with ADCYAP1R1, the binding specificity result was “binds specifically to only ADCYAP1R1”. In addition, the “intracellular ATP levels, and hence cell number” value in assay [1] is reported as “statistically significant increase in intracellular ATP levels”.
